± gives the uncertainty stated by the source.
B1: Lysine-specific demethylase 5C, residues 319 to 373; numbered along this chain, P41229 (parent)
chain: AQFIESYVCRMCSRGDEDDKLLLCDGCDDNYHIFCLLPPLPEIPKGVWRCPKCVM

Variants of: B1
Experiment: abundance fitness (aPCA) (normalised: wild type 0, dead -1); higher = more abundant; growth selection in yeast, the domain comes from the species named
Conditions: Homo sapiens

| Variant | abundance fitness |
| --- | --- |
| S13K | -0.196 ± 0.26 |
| S13N | -0.212 ± 0.17 |
| S13G | 0.074 ± 0.1 |
| S13E | 0.419 ± 0.15 |
| S13F | -0.2 ± 0.15 |
| S13R | 0.007 ± 0.09 |
| S13Q | -0.183 ± 0.16 |
| C9V | -0.792 ± 0.15 |
| C50W | -0.823 ± 0.22 |
| C50P | -0.987 ± 0.46 |
| D18G | 0.183 ± 0.076 |
| D18F | 0.157 ± 0.14 |
| D18Y | -0.284 ± 0.16 |
| D18Q | 0.224 ± 0.11 |
| F34D | -0.149 ± 0.17 |
| F34P | -0.291 ± 0.15 |
| F34L | -0.157 ± 0.11 |
| F34G | 0.046 ± 0.11 |
| D28M | -0.411 ± 0.32 |
| K52R | 0.007 ± 0.096 |
| K52F | -0.14 ± 0.23 |
| K52Q | -0.065 ± 0.19 |
| L37D | 0.122 ± 0.16 |
| L37I | -0.043 ± 0.22 |
| L37Q | -0.108 ± 0.16 |
| L37Y | -0.328 ± 0.15 |

| Variant | abundance fitness |
| --- | --- |
| L37S | -0.012 ± 0.1 |
| P41E | -0.278 ± 0.19 |
| P41Q | -0.051 ± 0.21 |
| P41A | -0.134 ± 0.13 |
| M11L | -0.264 ± 0.093 |
| M11C | -0.085 ± 0.18 |
| M11T | -0.211 ± 0.16 |
| M11W | -0.18 ± 0.13 |
| M11I | -0.121 ± 0.21 |
| M11P | -0.669 ± 0.17 |
| V47M | -0.157 ± 0.18 |
| V47R | 0.044 ± 0.087 |
| V47E | -0.142 ± 0.14 |
| P51Y | -0.312 ± 0.26 |
| P51S | 0.138 ± 0.11 |
| P51H | -0.015 ± 0.17 |
| C35I | -1 ± 0.4 |
| C35Q | -1.03 ± 0.46 |
| R10Y | -0.175 ± 0.44 |
| I4E | -0.145 ± 0.19 |
| I4A | -0.188 ± 0.13 |
| I4H | -0.111 ± 0.17 |
| Y31N | -0.679 ± 0.28 |
| Y31A | -0.476 ± 0.095 |
| C53E | -0.952 ± 0.4 |
| C53I | -0.941 ± 0.39 |

| Variant | abundance fitness |
| --- | --- |
| C53M | -0.713 ± 0.34 |
| C53T | -0.939 ± 0.29 |
| C53R | -1 ± 0.17 |
| C27V | -0.752 ± 0.15 |
| C27M | -0.507 ± 0.19 |
| C27L | -0.842 ± 0.16 |
| C27Y | -0.779 ± 0.21 |
| E17G | 0.023 ± 0.091 |
| E17Y | -0.285 ± 0.24 |
| E17T | 0.087 ± 0.14 |
| E17I | -0.052 ± 0.21 |
| V54A | -0.151 ± 0.11 |
| V54F | -0.479 ± 0.24 |
| D25F | -0.394 ± 0.12 |
| D25Q | -0.218 ± 0.16 |
| D25L | -0.381 ± 0.083 |
| K45I | -0.25 ± 0.23 |
| K45C | -0.156 ± 0.14 |
| K45L | -0.175 ± 0.12 |
| K45V | -0.179 ± 0.15 |
| K45F | -0.491 ± 0.21 |
| K45H | -0.048 ± 0.17 |
| K45M | -0.469 ± 0.28 |
| C24Y | -0.812 ± 0.27 |
| D19L | -0.162 ± 0.07 |
| D19G | 0.08 ± 0.1 |

| Variant | abundance fitness |
| --- | --- |
| D19C | 0.019 ± 0.11 |
| D19N | 0.04 ± 0.1 |
| F3N | 0.182 ± 0.17 |
| R49W | -0.085 ± 0.31 |
| R49P | -0.949 ± 0.31 |
| G15K | 0.086 ± 0.089 |
| G15E | 0.049 ± 0.12 |
| G15V | -0.025 ± 0.096 |
| G15M | -0.142 ± 0.1 |
| E5P | -0.435 ± 0.21 |
| E5K | 0.036 ± 0.19 |
| E5L | -0.378 ± 0.12 |
| E5D | 0.054 ± 0.19 |
| E42N | -0.034 ± 0.17 |
| L22K | -0.332 ± 0.13 |
| L22S | -0.474 ± 0.092 |
| S6F | -0.154 ± 0.14 |
| S6H | -0.294 ± 0.23 |
| Q2N | -0.019 ± 0.19 |
| Q2F | -0.531 ± 0.26 |
| Q2T | 0.203 ± 0.2 |
| Q2M | -0.109 ± 0.24 |
| Q2H | -0.187 ± 0.15 |
| N30V | 0.152 ± 0.081 |
